Measured values taken from US20180312608A1 (NEW YORK UNIVERSITY, published 2018).

How the values were obtained:
Test in all cases: Biacore (SPR), tau peptide
[1] = molecular target: T1, Tau379-408 [P-Ser396/404] (phosphoserine at Ser396 and Ser404 (Tau numbering, SEQ ID NO:1))
T1 construct: 30 amino acid synthetic peptide; also called Tau 379-408 (PSer396/PSer404)

Tau379-408 = molecular target: T2, Tau379-408
T2 construct: 30 amino acid synthetic peptide, not phosphorylated; also called Tau 379-408 (Ser396/Ser404)
T2 sequence (peptide, as listed by the source): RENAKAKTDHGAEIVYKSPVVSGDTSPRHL

[2] = molecular target: T3, Tau386-408 [P-Ser396/404] (phosphoserine at positions 11 and 19 (Ser396 and Ser404 of Tau))
T3 construct: 23 amino acid peptide; also called Tau 386-408 (PSer396/PSer404)
T3 sequence (peptide, as listed by the source): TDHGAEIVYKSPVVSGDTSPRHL

Tau386-408 [P-Ser404] = Tau386-408 [P-Ser404] (phosphoserine at Ser404 of Tau (position 19 of SEQ ID NO:7))

B1: Antibody 4E6G7 (antibody, V domains shown)
VH: VQLQQSGAELVQPGASVKLSCTASGFNIKDTSMHWVRQRPEQGLEWIGRIAPANGNTKYDPKFQGKATITTDTSSNTAYLQLSSLTSEDTAVYYCSGSGNYDWGQGTTLTVS
VL: DIQMNQSPSSLSASLGDTITISCHASQNINVWLSWYQQKPGNIPKLLIFEASTLYTGVPSRFSGSGSGTGFTLTISSLQPEDIATYYCQQGQSYPWTFGGGTKLEIKR
notes: constant regions are not
[1]
  Kd: 271 nM
Tau379-408
  Kd: 212 nM
[2]
  Kd: 469 nM
Tau386-408 [P-Ser404]
  Kd: 278 nM
